Paper PMC11367332, “Neutralizing IL-38 activates γδ T cell-dependent antitumor immunity and sensitizes for chemotherapy” (Journal for Immunotherapy of Cancer, 2024)

Legend:
Type in all cases: cell-based, mouse
splenic γδ T cells = test: γδ T cell / CD8+ T cell culture with recombinant IL-38; conditions: 100 ng/mL daily, day 5, cytometric bead array
Protocol: γδ T cells and CD8+ T cells were isolated from murine spleens by fluorescence-activated cell sorting (FACS) and co-cultured at a ratio of 1:10. The cells were cultured in T-cell medium Roswell Park Memorial Institute (RPMI) 1640 with 5 mM glutamine, 100 U/mL penicillin, 100 µg/mL streptomycin, 10% heat-inactivated fetal calf serum (FCS), 1% non-essential and essential amino acids, 1% sodium pyruvate and 1% 4-(2-hydroxyethyl)-1-piperazineethanesulfonic acid (HEPES) followed by activation with mouse T-cell activator CD3/CD28 Dynabeads (Thermo Fisher Scientific), 10 ng/mL of recombinant murine (rm) IL-23 and rm IL-1β (both from Bio-Techne). Cells were supplemented with 10 ng/mL rm IL-2 (PrepoTech) at days 0, 2 and 5 and daily with 100 ng/mL rm IL-38 (AdipoGen) and 50 μM β-mercaptoethanol. Cells were cultured for up to 5 days. At the endpoint, supernatants were collected for cytokine determination and cell proliferation was analyzed by flow cytometry.
To measure the cytokines in PyMT tumors and cell culture supernatants, Cytometric Bead Array Flex Sets (BD Biosciences) were used for murine IL-17A and IFN-γ. The samples were acquired via FACS and analyzed with FlowJo Software V.10 (Tree Star).

γδ T cells = test: Xcl1 production by activated γδ T cells (ELISA); conditions: 100 ng/mL, 24 hours
Protocol: γδ T cells isolated from murine spleen were cultured in T-cell medium, activated with mouse T-cell activator CD3/CD28 Dynabeads (Thermo Fisher Scientific), except for the negative control, and supplemented with 10 ng/mL rm IL-2 (PrepoTech), 100 ng/mL rm IL-38 (AdipoGen) and […] β-mercaptoethanol. Supernatants were collected 24 hours after seeding for the determination of Xcl1 levels.
Xcl1 levels were determined from supernatants collected from γδ T-cell cultures using Mouse Xcl1/Lymphotactin DuoSet ELISA Kit (R&D Systems) according to the manufacturer’s instructions.

cDC1 = cDC1 migration, Boyden chamber assay; conditions: supernatants of γδ T cells pretreated with IL-38, 2 hours
Protocol: Boyden chamber assays were performed using a 96 well-plate with 4.26 mm transwell inserts with 5.0 µm pore polycarbonate membrane (Corning). Briefly, 1.4×10^4 DC-enriched murine splenocytes (EasySep Mouse Pan-DC Enrichment Kit II, STEMCELL Technologies) were suspended in serum-free RPMI 1640 medium and added to transwell inserts. Supernatants collected after 24 hours of γδ T cells stimulation (described above) were pre-incubated with either 15 µg/mL IgG isotype control (R&D Systems) or 15 µg/mL anti-Xcl1 (R&D Systems) and added to the bottom compartment. Cells were harvested 2 hours later and migrated and non-migrated cells were analyzed by FACS. The percentage of migrated cDC1 was determined by the ratio of migrated/non-migrated cells.

B1: recombinant IL-38: recombinant murine IL-38 (AdipoGen) (protein)
chain: MCSLPMARYYIIKDAHQKALYTRNGQLLLGDPDSDNYSPEKVCILPNRGLDRSKVPIFLGMQGGSCCLACVKTREGPLLQLEDVNIEDLYKGGEQTTRFTFFQRSLGSAFRLEAAACPGWFLCGPAEPQQPVQLTKESEPSTHTEFYFEMSR
IFN-γ secretion in γδ T cell / CD8+ T cell co-culture (splenic γδ T cells): limited the secretion of IFN-γ
IL-17 production by splenic γδ T cells (splenic γδ T cells): effectively suppressed IL-17 production
Xcl1 levels on γδ TCR-dependent activation (γδ T cells): suppressed
cDC1 migration towards γδ T-cell supernatants (cDC1): reduced
